# Assay results taken from patent US20210340232A1, “MONOCLONAL ANTIBODIES AGAINST HUMAN DICKKOPF3 AND USES THEREOF” (Board of Regents, The University of Texas System, priority 2018, published 2021).
# B1: JM6-6-1: monoclonal antibody against human DKK3; heavy chain variable SEQ ID NO: 19, light chain variable SEQ ID NO: 20 (antibody, V domains shown)
# VH: EVKLVESGGGLVKPGGSLKLSCAASGFTFTIEYMAWIRQTPEKRLEWVASISSGGDDIYYADNVKGRFTISRDNAKNTLYLQMSSLKSEDTAIYYCSRSLSDWGQGTTLTVSSAKTTPPSDYPLA
# VL: MTQTPLSLPVSLGDQASISCRSSQSILHSNGHTYLEWYLQKPGQSPKLLIYKVSNRFSGVPDRFSGSGSGTDFTLKISRVEAEDLGVYYCFQGSHVPFTFGSGTKLEIERADAAQ
# How the values were obtained:
# [1] = test system: BxPC3 cells; assay: BxPC3 resistance to gemcitabine, MTS proliferation assay; type: cell-based, human; settings: BxPC3, gemcitabine 100 μM, HPSC-CM 10 μg/ml, 6 days
# Protocol: (§1) HPSCs and BxPC3 cells were treated with DKK3 mAb clones JM6-6-1 and JM8-12-1 or isotype control mAb or PBS. (FIGS. 5A-B) HPSC apoptosis and migration as measured by FACS and Transwell migration assay at 48 hours. (FIG. 5C) BxPC3 migration in response to rhDKK3 10 μg/ml as measured by Transwell migration assay at 48 hours. (FIG. 5D) BxPC3 resistance to gemcitabine 100 μM as measured by MTS proliferation assay at 6 days. HPSC-CM, pancreatic stellate cell conditioned media, 10 μg/ml. The orthotopic co-injection BxPC3+ HPSC model of PDAC was used to test the efficacy of DKK3 mAb clones JM6-6-1 or JM8-12-1 (5 mg/kg i.p. once every 5 days). (FIG. 5E) Overall tumor progression was measured every 3-4 days by IVIS imaging. (FIG. 5F) Metastatic tumors in the peritoneal cavity after removal of the primary pancreatic tumor are shown by IVIS imaging. (FIG. 5G) Kaplan Meier survival curve showing mice treated with DKK3 mAb clone JM8-12 (right-most line), control mAb (middle line), or PBS (left-most line). (FIG. 5H) KPC mice (P48-Cre; Kras LSL-G12D;Trp53fl/fl) with either wild type DKK3 (solid lines) or deficient in DKK3 (“DKK3-KO,” dashed lines) were treated with DKK3 mAb JM6-6-1 (5 mg/kg i.p. once every 5 days), PBS or control mAb. […]
# (§2) Cell-based assays. Cell proliferation was measured by the MTS assay (Promega, Madison, Wis.). […]
# [2] = test system: Pdx1-Cre GEMM model of PDAC; assay: Survival in Pdx1-Cre GEMM model of PDAC; type: in vivo, mouse; settings: 5 mg/kg i.p. q5d
# Protocol: FIGS. 12A-D. DKK3 expression in mouse PSCs and effects of treatment with DKKC mAb on survival. (FIG. 12A) Western blot analysis of recombinant human and mouse DKK3 under denaturing and non-denaturing conditions using JM6-6-1 mAb. (FIG. 12B) Expression of murine DKK3 in murine PSCs (MPSC) or 3T3 cells was determined by RT-PCR. 18S was used as loading control. (FIG. 12C) Proliferation of MPSCs treated with DKK3 mAb was measured at 7 days by MTS assay. ***p<0.001 vs. PBS. (FIG. 12D) Pdx1-Cre; Kras LSL-G12D;Trp53fl/+ model of PDAC was treated with DKK3 mAb JM6-6-1 or control mAb JM4-74 (5 mg/kg i.p. q5d). Kaplan-Meier survival curves are shown (log rank test). At 0% survival, the right line is JM6-6-1, the middle lines is PBS, and the left line is Control Ab.
# Two GEMMs of PDAC that differ in the pancreas-specific promoter to target oncogenic Kras expression (Hingorani et al., 2005; Hingorani et al., 2003) were used in the experiments to evaluate the effect of DKK3 neutralizing mAb (Pdx1-Cre; Kras^LSL-G12D; Trp53^R172H/+ and P48-Cre; Kras^LSL-G12D; Trp53^fl/fl). To evaluate the effects of genetic ablation of DKK3 on pancreatic cancer development, DKK3-null mice were crossed to P48-Cre; Kras^LSL-G12D;Trp53^R172H or P48-Cre; Kras^LSL-G12D; Trp53^fl/fl mice (Hingorani et al., 2005; Hingorani et al., 2003), and the progeny were monitored until they were moribund. […]
# [3] = test system: BxPC3 cells; assay: BxPC3 Transwell migration in response to rhDKK3; type: cell-based, human; settings: BxPC3, rhDKK3 10 μg/ml, 48 hours
# Protocol: as §1, §2
molecule,measurement,setting,value
B1,effect on DKK3-mediated chemoresistance to gemcitabine,[1],abrogated the DKK3-mediated induction of chemoresistance to gemcitabine
same,effect on survival,[2],equally effective
same,effect on DKK3-mediated induction of migration,[3],reverse the DKK3-mediated induction of migration
